Bridge positions count the residues as written; N and C are the ends. Square brackets hold non-standard residues; d marks the D form. R8 = C=CCCCCCC[C@@](C)(N)C(=O)O; S5 = C=CCCC[C@](C)(N)C(=O)O; Nle = CCCC[C@H](N)C(=O)O
Molecular target: T1, UBA1 (Homo sapiens, UniProt P22314)
T1 sequence (P22314 1-1058): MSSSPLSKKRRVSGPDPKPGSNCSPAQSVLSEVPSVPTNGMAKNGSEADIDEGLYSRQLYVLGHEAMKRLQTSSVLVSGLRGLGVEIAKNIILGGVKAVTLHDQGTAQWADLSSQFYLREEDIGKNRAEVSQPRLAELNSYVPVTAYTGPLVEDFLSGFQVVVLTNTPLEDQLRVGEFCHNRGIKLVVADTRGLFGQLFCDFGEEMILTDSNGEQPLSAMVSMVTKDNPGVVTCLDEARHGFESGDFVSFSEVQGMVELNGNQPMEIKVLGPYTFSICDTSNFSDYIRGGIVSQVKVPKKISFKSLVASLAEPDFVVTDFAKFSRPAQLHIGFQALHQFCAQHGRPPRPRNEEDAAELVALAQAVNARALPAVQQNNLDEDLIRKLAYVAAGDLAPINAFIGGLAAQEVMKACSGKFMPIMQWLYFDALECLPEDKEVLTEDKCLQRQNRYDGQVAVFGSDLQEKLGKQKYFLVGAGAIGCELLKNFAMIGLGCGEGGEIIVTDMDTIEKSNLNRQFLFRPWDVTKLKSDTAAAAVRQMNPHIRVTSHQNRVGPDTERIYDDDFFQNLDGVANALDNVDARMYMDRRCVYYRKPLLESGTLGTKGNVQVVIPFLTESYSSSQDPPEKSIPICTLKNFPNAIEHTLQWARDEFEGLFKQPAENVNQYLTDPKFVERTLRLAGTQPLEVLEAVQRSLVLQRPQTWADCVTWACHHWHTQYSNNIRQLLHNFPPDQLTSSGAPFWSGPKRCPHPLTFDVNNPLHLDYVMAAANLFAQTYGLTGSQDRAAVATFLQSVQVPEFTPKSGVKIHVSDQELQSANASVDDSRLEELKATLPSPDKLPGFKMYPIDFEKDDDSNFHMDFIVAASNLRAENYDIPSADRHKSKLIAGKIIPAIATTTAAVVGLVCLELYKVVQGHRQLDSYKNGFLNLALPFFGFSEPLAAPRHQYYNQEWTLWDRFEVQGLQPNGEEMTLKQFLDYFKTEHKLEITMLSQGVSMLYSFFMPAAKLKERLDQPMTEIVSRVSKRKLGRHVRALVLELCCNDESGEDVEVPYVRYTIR
Assay: Streptavidin-biotin pull-down with recombinant protein
Type: binding
Conditions: biotinylated peptide, silver stain
Protocol: Streptavidin-biotin pull-down assays: For recombinant protein pull-downs, 10 pmol recombinant human UBA1 was incubated with 5 nmol C-terminally biotinylated SAH-UBE2A or DMSO vehicle control in a total volume of 1 mL binding buffer (50 mM NaCl, 20 mM HEPES, pH 7.4, 5 mM DTT) for 1.5 hours at 4° C. 30 μL of pre-equilibrated streptavidin agarose beads were then added and incubated for an additional 1.5 hours at 4° C. The beads were pelleted by centrifugation and washed three times with NP-40 buffer (20 mM HEPES, pH 7.4, 50 mM NaCl, 5 mM DTT, 0.5% [v/v] NP-40) before eluting the protein sample from the beads by heating at 70° C. for 10 min in 3×SDS loading buffer. Samples were subjected to electrophoresis and silver staining (Pierce 24612). […] Proteins were separated by SDS-PAGE gel electrophoresis and detected by western blot against UBE1 (Abcam ab34711). […] Conjugation of ubiquitin to E2 by E1 is monitored by conversion of free E2 (17 kDa) to E2˜ubiquitin conjugate (26 kDa). Quantitation of percent inhibition was calculated from densitometry of silver stain images. Error bars represent ±1 SEM calculated from three independent experiments.

Substance: biotinylated SAH-UBE2A: C-terminally biotinylated SAH-UBE2A (Ac-[Nle]STP[R8]RRRL[Nle]R[S5]FKRLQ-biotin; staple 5-12)
- direct binding to recombinant UBA1, streptavidin capture: direct binding of biotinylated SAH-UBE2A to recombinant UBA1

Reference: patent US12358960B2, “Selective targeting of ubiquitin- and ubiquitin-like E1-activating enzymes by structurally-stabilized peptides” (Dana-Farber Cancer Institute, Inc., priority 2019, dated 2025)
